From patent publication US4783441A, “Aqueous protein solutions stable to denaturation” (Hoechst Aktiengesellschaft, priority 1979, dated 1988)

B1: Egg-albumin: egg albumin (protein, UniProt P01012 2-386, looked up)
Ovalbumin: GSIGAASMEFCFDVFKELKVHHANENIFYCPIAIMSALAMVYLGAKDSTRTQINKVVRFDKLPGFGDSIEAQCGTSVNVHSSLRDILNQITKPNDVYSFSLASRLYAEERYPILPEYLQCVKELYRGGLEPINFQTAADQARELINSWVESQTNGIIRNVLQPSSVDSQTAMVLVNAIVFKGLWEKAFKDEDTQAMPFRVTEQESKPVQMMYQIGLFRVASMASEKMKILELPFASGTMSMLVLLPDEVSGLEQLESIINFEKLTEWTSSNVMEERKIKVYLPRMKMEEKYNLTSVLMAMGITDVFSSSANLSGISSAESLKISQAVHAAHAEINEAGREVVGSAEAGVDAASVSEEFRADHPFLFCIKHIATNAVLFFGRCVSP

How the values were obtained:
[1] = Adsorption of proteins on polystyrene beads at 5° C., protein concentration in filtrate, Example 3; format: physicochemical; conditions: for protein concentration in solution, A: A = 3 ml of protein solution + 450 μl of buffer (no polystyrene), phosphate buffer pH 7; for protein concentration in solution (filtrate), B: B = after contact with treated polystyrene surfaces (block polymer PPG MW 2,250, 5% PEG each side; 20 ppm present); for protein concentration in solution (filtrate), B / protein concentration in solution (filtrate), C: shaken at 5° C., 0.2 μm filtered; for protein concentration in solution (filtrate), C: C = after contact with untreated polystyrene surfaces
Protocol: 10 ml of an aqueous suspension of polystyrene beads (Dow-Latex®) having an average diameter of 0.481 μm were divided in two aliquots, one of which remained untreated while the other was shaken for 2 days at room temperature with 50 mg of a block polymer consisting of a linear polypropylene glycol chain with an average molecular weight of 2,250 (Dalton) on each side of which 5% of polyethylene glycol had been added by polymerization. The excess block polymer was then removed by dialysis against an aqueous solution containing 20 ppm of the same polymeric, surface-active substance.
Two times 3 ml portions of a solution of the proteins indicated in the following table in the given concentrations in phosphate buffer, pH 7, were prepared and each solution was shaken at 5° C. with 500 μl each of the untreated polystyrene suspension or the polystyrene suspension treated as described above, the latter still containing 20 ppm of the block polymer. Each sample was then filtered to clarity through a 0.2 μm filter.
A=3 ml of the respective protein solution+450 μl of buffer
B=after contact with treated polystyrene surfaces
C=after contact with untreated polystyrene surfaces.

[2] = Shaking test of peptide hormone solutions at 37° C., Example 5; conditions: for appearance after a few days of shaking: 0.1% solution in 0.05M Tris/HCl buffer pH 7.5, shaken at 37° C., without stabilizer; for appearance of stabilized samples: 0.1% solution in 0.05M Tris/HCl pH 7.5, shaken at 37° C., with 10 ppm block polymer (PPG MW 2,000, 5% PEG each side)
[3] = Shaking test of albumin solutions at 37° C. (turbidity from denatured protein), Example 1b; format: physicochemical; conditions: 0.1% solution in 0.01M phosphate buffer pH 7, shaken at 37° C.
[4] = Adsorption of β-galactosidase on silicone oil emulsion, enzyme activity in aqueous phase, Example 2; format: physicochemical
Protocol: Ten samples of 10 ml each of a 0.01% solution of the enzyme β-galactosidase from E. coli in 0.01M phosphate buffer, pH 7, with 3×10^6 μU/ml were admixed stepwise with 10 to 100 mg of silicone oil AK 350 and the suspensions were shaken for 48 hours at 5° C. Emulsions were formed which could be separated into two phases by ultracentrifugation (40,000 g, 30 minutes, 4° C.). The enzyme activity in the aqueous phase was determined.

[5] = Shaking test of protein solutions at 37° C. with analytical ultracentrifuge check, Example 6; format: physicochemical
Protocol: 0.1% solutions of egg albumin, human immunoglobulin-G and myoglobin of the whale, respectively, in 0.01M phosphate buffer, pH 7, and analogous solutions containing 0.1%, calculated on the weight of the solution, of the following compound [drawing 4] in which n and m are chosen to obtain a compound having an average total molecular weight of 12,500 Daltons with an ethylene oxide proportion of 40%, were freed from aggregates by ultracentifugation (for example 100,000 g/90 minutes). Ampules containing 10 ml each of the solutions were shaken at 37° C.

Molecule	protein concentration in solution, A [1]	protein concentration in solution (filtrate), B [1]	protein concentration in solution (filtrate), C [1]	appearance after a few days of shaking [2]	other results
Insulin	1.0 mg/mL	1.0 mg/mL	0.2 mg/mL	–	–
Lysozyme	1.0 mg/mL	0.95 mg/mL	0.25 mg/mL	–	–
adrenocorticotropic hormone: peptide hormone (SYSMEHFRWGKPVGKKRRPVKVYPNGAEDESAEAFPLEF; Corticotropin; UniProt P01189 138-176, looked up)	–	–	–	had become turbid	appearance of stabilized samples [2]: remained clear even after several months
bovine serum albumin: bovine serum albumin, 0.1% solution	–	–	–	–	appearance of sample containing stabilizer ([3]; with 10 ppm block polymer (polypropylene glycol MW 1,750, 5% polyethylene glycol on each side)): still limpid after several month; time after which sample became strongly turbid (denatured protein) ([3]; without stabilizer): 7 days
calcitonin	–	–	–	had become turbid	appearance of stabilized samples [2]: remained clear even after several months
cholecystokinin	–	–	–	had become turbid	appearance of stabilized samples [2]: remained clear even after several months
gastrin	–	–	–	had become turbid	–
gastrin inhibiting polypeptide: peptide hormone	–	–	–	had become turbid	–
secretin: peptide hormone	1.0 mg/mL	1.0 mg/mL	0.3 mg/mL	had become turbid	–
β-galactosidase: enzyme β-galactosidase from E. coli	–	–	–	–	enzyme adsorbed by silicone oil emulsion ([4]; 0.01% solution, 0.01M phosphate buffer pH 7, 10 to 100 mg silicone oil AK 350, shaken 48 hours at 5° C., without stabilizer): up to 70%; enzyme activity adsorbed on silicone oil ([4]; same test in the presence of 100 ppm of compound drawing 2): no enzyme activity had been adsorbed
B1	0.5 mg/mL	0.50 mg/mL	0.22 mg/mL	–	appearance of samples without stabilizer ([5]; 0.1% solution in 0.01M phosphate buffer pH 7, freed from aggregates, shaken at 37° C., without stabilizer): became strongly turbid after a few hours; appearance of samples containing surface-active substance ([5]; 0.1% solution in 0.01M phosphate buffer pH 7, shaken at 37° C., with 0.1% of compound drawing 4 (MW 12,500, 40% ethylene oxide)): remained limpid for several months; new aggregates in analytical ultracentrifuge ([5]; samples with 0.1% of compound drawing 4 after shaking at 37° C.): no new aggregate could be found
